Source: PMC10778692

How the values were obtained:
L-Malate dehydrogenase = biological target: T1, L-Malate dehydrogenase (UniProt P00346)
T1 sequence: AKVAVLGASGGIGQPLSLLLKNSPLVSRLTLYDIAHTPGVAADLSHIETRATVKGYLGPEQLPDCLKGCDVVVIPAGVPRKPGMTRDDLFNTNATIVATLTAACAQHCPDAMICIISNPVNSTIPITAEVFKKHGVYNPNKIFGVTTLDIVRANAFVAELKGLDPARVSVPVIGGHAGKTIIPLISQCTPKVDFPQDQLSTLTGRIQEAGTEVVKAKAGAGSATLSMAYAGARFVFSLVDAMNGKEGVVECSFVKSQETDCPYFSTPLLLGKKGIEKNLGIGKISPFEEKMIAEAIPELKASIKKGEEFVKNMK

B1: HspB5 F113Y (natural protein)
chain: MDIAIHHPWIRRPFFPFHSPSRLFDQFFGEHLLESDLFPTSTSLSPFYLRPPSFLRAPSWFDTGLSEMRLEKDRFSVNLDVKHFSPEELKVKVLGDVIEVHGKHEERQDEHGYISREFHRKYRIPADVDPLTITSSLSSDGVLTVNGPRKQVSGPERTIPITREEKPAVTAAPKK
- DTT-induced aggregation of insulin with F113Y (5:1 substrate to sHsp), reduction in the peak level of light scattering at 340 nm (insulin): > 50%

B2: HspB5 R116C (natural protein)
chain: MDIAIHHPWIRRPFFPFHSPSRLFDQFFGEHLLESDLFPTSTSLSPFYLRPPSFLRAPSWFDTGLSEMRLEKDRFSVNLDVKHFSPEELKVKVLGDVIEVHGKHEERQDEHGFISCEFHRKYRIPADVDPLTITSSLSSDGVLTVNGPRKQVSGPERTIPITREEKPAVTAAPKK
- heat-induced (55 °C) aggregation of MDH with R116C, reduction of light scatter at 340 nm against substrate alone (L-Malate dehydrogenase): 16%
